The values that follow are results of earlier work, collected in paper PMC10217895.

Like-named read-outs stand apart in the source and are kept apart here.

Targets include LRP1 (Homo sapiens) (UniProt Q07954); ASGPR (Homo sapiens) (UniProt P07306); LDLR (Homo sapiens) (UniProt P01130); SIGLEC5 (Homo sapiens) (UniProt O15389); SCARA5 (Homo sapiens) (UniProt Q6ZMJ2).
Data set [1] concerns the target von Willebrand factor (Homo sapiens) (UniProt P04275).
Data set [2] shares this target. The source holds these as a separate data set.

Factor VIII, sequence (P00451 760-1332): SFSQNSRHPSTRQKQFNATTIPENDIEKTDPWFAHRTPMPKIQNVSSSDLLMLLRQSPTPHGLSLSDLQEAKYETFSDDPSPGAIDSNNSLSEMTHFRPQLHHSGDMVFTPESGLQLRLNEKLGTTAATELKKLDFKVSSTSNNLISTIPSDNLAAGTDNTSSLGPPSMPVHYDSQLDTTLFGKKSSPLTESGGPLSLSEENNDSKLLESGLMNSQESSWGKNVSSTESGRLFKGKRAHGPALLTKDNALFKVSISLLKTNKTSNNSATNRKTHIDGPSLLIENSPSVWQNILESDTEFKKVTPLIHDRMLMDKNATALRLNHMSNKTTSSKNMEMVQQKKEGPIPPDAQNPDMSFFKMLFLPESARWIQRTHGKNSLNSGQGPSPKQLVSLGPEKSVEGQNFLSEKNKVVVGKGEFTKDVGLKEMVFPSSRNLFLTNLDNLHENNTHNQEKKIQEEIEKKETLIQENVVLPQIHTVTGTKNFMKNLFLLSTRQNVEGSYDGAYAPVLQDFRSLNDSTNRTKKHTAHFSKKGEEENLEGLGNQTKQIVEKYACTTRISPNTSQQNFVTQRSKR
LDLR (Homo sapiens), sequence (P01130 22-788): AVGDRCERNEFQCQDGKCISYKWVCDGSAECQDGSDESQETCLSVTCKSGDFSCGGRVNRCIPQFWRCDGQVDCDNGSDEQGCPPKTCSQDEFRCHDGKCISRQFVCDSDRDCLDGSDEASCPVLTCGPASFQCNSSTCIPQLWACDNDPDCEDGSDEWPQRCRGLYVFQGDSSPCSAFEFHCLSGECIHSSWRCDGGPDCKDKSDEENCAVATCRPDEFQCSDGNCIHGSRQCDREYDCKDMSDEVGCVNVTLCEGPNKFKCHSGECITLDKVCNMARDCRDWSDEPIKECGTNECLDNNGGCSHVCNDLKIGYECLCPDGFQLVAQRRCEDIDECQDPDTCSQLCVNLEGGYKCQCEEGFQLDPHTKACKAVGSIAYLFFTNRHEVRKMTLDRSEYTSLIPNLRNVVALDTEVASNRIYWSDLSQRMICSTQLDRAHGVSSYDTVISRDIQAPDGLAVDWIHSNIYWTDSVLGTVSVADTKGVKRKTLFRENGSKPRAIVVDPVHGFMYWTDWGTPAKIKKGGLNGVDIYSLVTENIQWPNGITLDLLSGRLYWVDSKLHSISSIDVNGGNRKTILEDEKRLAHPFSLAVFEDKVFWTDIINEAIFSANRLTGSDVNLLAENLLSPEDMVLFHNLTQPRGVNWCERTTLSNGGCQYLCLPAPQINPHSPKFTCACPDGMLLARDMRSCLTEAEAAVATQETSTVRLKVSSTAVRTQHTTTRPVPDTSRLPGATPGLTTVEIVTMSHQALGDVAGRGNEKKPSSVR
FVIII-KB013bv, sequence (P00451 20-759): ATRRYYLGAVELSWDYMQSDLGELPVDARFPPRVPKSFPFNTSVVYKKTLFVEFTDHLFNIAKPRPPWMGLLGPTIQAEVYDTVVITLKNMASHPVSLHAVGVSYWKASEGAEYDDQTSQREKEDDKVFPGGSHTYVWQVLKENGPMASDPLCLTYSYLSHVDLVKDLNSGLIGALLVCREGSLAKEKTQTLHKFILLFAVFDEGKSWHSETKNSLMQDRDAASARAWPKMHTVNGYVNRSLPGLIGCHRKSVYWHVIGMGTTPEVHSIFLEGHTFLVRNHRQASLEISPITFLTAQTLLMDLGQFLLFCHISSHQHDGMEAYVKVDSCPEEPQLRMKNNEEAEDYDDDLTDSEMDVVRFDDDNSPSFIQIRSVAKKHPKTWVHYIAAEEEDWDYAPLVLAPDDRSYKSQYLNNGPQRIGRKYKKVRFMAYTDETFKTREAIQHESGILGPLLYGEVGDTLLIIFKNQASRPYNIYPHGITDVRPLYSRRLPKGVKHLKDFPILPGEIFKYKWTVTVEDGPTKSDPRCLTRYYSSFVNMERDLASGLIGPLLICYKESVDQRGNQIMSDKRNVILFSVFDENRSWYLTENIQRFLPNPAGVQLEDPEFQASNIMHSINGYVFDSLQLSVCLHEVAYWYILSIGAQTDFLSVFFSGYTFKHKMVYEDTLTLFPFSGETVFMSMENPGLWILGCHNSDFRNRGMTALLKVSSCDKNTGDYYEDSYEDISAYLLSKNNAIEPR
FVIII-KB013bv, sequence (P00451 1668-2351): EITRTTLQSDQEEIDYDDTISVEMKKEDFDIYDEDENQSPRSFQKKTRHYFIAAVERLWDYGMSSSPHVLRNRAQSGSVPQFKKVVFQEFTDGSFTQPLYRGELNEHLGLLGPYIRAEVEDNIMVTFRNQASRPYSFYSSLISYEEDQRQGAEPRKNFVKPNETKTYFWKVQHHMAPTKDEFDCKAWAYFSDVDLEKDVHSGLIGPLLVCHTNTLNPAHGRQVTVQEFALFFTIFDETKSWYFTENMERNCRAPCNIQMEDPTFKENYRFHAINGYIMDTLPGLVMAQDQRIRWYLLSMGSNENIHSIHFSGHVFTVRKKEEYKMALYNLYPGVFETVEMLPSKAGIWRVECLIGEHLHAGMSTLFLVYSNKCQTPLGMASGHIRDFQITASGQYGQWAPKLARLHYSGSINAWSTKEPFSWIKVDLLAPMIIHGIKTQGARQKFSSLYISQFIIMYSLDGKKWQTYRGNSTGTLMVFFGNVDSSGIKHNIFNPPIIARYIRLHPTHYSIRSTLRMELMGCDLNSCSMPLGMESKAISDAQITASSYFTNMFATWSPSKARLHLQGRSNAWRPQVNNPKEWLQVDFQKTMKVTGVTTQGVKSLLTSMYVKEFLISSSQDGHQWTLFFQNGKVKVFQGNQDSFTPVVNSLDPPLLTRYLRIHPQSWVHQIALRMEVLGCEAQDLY
SCARA5 (Homo sapiens), sequence (Q6ZMJ2 whole entry): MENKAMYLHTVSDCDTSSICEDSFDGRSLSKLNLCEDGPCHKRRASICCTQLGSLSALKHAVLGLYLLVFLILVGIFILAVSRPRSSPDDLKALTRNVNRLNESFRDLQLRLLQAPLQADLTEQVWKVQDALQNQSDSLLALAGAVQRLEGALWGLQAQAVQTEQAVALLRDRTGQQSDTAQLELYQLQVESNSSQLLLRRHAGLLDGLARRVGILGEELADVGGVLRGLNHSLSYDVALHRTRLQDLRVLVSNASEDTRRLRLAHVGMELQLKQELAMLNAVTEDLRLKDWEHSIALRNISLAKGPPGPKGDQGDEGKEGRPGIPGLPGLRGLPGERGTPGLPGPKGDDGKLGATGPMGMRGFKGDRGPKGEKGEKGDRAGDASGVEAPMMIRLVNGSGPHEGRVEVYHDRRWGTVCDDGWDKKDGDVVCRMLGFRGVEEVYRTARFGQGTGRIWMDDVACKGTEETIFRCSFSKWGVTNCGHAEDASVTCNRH
ASGPR (Homo sapiens), sequence (P07306 whole entry, chain 1 of 2): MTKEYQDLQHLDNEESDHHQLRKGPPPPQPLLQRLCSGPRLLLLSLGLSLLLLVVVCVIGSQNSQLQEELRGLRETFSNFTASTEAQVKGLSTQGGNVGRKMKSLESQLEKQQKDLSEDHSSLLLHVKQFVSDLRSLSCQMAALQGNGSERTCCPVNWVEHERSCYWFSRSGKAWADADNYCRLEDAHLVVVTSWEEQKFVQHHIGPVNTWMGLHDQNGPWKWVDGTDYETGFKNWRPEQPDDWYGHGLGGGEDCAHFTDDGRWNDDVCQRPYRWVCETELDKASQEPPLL
ASGPR (Homo sapiens), sequence (P07307 whole entry, chain 2 of 2, further chain): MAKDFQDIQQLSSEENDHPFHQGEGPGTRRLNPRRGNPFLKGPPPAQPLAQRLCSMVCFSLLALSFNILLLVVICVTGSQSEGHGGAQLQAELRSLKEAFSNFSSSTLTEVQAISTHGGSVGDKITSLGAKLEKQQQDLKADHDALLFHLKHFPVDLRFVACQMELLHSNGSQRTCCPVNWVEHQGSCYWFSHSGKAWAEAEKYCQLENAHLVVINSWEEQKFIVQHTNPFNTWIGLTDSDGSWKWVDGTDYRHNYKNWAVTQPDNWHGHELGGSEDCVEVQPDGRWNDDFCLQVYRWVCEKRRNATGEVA
SIGLEC5 (Homo sapiens), sequence (O15389 17-441): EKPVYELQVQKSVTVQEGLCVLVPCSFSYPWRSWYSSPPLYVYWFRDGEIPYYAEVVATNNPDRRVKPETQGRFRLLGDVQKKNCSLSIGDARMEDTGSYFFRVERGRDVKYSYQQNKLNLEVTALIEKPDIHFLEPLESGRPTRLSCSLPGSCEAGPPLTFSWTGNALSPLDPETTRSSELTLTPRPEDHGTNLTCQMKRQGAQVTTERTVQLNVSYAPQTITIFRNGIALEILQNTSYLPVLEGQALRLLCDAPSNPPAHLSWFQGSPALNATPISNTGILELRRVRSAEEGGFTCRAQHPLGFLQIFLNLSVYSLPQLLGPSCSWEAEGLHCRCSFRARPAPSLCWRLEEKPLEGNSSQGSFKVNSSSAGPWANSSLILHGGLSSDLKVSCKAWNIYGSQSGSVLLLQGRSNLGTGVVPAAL

For the substance Factor VIII (from UniProt P00451), the Kd was 20 nM with LRP1 (Homo sapiens); 0.5 nM in data set [1]; 2 nM with ASGPR (Homo sapiens); 45 nM in the data set with LDLR (Homo sapiens); 8 nM with SIGLEC5 (Homo sapiens).
Regarding “von Willebrand factor (from UniProt P04275)”, the Kd with SCARA5 (Homo sapiens) is 0.5 nM.
Consider FVIII-KB013bv (from UniProt P00451), for which the Kd in data set [2] is 0.013 nM.
